Assays:
Experiment in all cases: kapp, same conditions
[1] = target: TadA8r (TadA-RA5.2) (Escherichia coli); conditions: tags: 6xHis-MBP removed by TEV; label: 5'-FAM
Text: (§1) We compared adenine deamination efficiency of TadA8r in ssDNA with TadA8.20 and TadA8e. Maltose binding protein (MBP) fused TadA8r, TadA8.20, and TadA8e were purified through immobilized metal affinity chromatography. A Tobacco Etch Virus (TEV) protease cutting site was installed between MBP and TadA*. After TEV proteinase treatment, TadA8r, TadA8.20, and TadA8e were purified by immobilized metal affinity chromatography, ion-exchange chromatography, and size-exclusion chromatography. DNA deamination assays were carried out using […] ssDNA oligos under single-turnover conditions. A-to-I conversion was measured to determine the apparent first-order deamination rate constant (kₐₚₚ) (FIG. 2a). Both TadA8.20 and TadA8e preferred TA over GA (kₐₚₚ=0.07 min⁻¹ and 0.08 min⁻¹ for TadA 8.20 on GA and TA probes, respectively; kₐₚₚ=0.01 min⁻¹ and 0.02 min⁻¹ for TadA8e on GA and TA probes, respectively). The kₐₚₚ for TadA8r is much higher—0.55 min⁻¹ on the GA probe and 0.39 min⁻¹, on the TA probe).
(§2) The single turnover DNA deamination reactions containing 4 uM TadA variants in deamination buffer (50 mM Tris, 25 mM KCl, 2.5 mM MgCl₂, 2 mM dithiothreitol, and 10% (v/v) glycerol; pH 7.5) and 5′ Fluorescein labeled ssDNA (IDT) (Supplementary Table 6) to a final concentration of 200 nM. All reactions were incubated at 37° C. At various time points (0, 1, 5, 10, 20, 60, 180 mins), 10 uL reaction mixture were aliquoted and quenched by adding 10 ul of hot water and incubating at 95° C. for 10 min. Reaction mixtures were supplied with 100 ug/ml Proteinase K (Fisher scientific) and incubated at 55° C. for 3 h followed by inactivating at 85° C. for 30 mins and 95° C. for 15 mins. To detected adenosine deamination, reaction mixture was incubated with 10 unit of E. coli EndonucleaseV in 1×NEB4 buffer at 37° C. for 1 h. After cleavage by EndoV, samples were mixed with 2-fold PAGE gel loading buffer (95% formamide, 10 mM EDTA, 0.025% SDS), heated at 95° C. for 5 min, resolved on 15% (v/v) denaturing polyacrylamide gel. Uncleavage substrate and cleavage product were visualized by ChemiDoc XRS+(Bio-rad) under fluorescein channel. DNA band quantification were analyzed using ImageJ Software. Curve fitting was done in GraphPad.

[2] = target: TadA8e (Escherichia coli); conditions: tags: MBP removed by TEV; label: 5'-FAM
Text: as §1, §2

[3] = target: TadA8.20 (Escherichia coli, UniProt P68398 SEQ:1-167); conditions: tags: MBP removed by TEV; label: 5'-FAM
Text: as §1, §2

TGGGTTGGTTATCGTTTGGTGG (ssDNA) [TA probe] was tested, and the activity [1] was 0.39 min⁻¹, the activity [2] was 0.02 min⁻¹ and the activity [3] was 0.08 min⁻¹.

TGGGTTGGTGATCGTTTGGTGG (ssDNA) [GA probe] was tested, and the activity [2] was 0.01 min⁻¹ and the activity [3] was 0.07 min⁻¹.

From patent US20240352439, “POLYPEPTIDES AND METHODS FOR MODIFYING NUCLEIC ACIDS” (THE UNIVERSITY OF CHICAGO, published 2024)
